Kd data for one molecule are collected here from EP1246846B1 (ZymoGenetics, Inc., dated 2008).

The target of this assay is T1, IL-20RA/IL-20RB heterodimeric receptor (human, UniProt Q9UHF4 30-553; Q6UXL0 30-311).
T1 construct: Both subunits were co-expressed on transfected COS, BHK or BaF3 cells, or were endogenous on HaCaT keratinocytes; also called IL-20RB-IL-20RA heterodimer; IL-20 receptor
T1 sequence 1: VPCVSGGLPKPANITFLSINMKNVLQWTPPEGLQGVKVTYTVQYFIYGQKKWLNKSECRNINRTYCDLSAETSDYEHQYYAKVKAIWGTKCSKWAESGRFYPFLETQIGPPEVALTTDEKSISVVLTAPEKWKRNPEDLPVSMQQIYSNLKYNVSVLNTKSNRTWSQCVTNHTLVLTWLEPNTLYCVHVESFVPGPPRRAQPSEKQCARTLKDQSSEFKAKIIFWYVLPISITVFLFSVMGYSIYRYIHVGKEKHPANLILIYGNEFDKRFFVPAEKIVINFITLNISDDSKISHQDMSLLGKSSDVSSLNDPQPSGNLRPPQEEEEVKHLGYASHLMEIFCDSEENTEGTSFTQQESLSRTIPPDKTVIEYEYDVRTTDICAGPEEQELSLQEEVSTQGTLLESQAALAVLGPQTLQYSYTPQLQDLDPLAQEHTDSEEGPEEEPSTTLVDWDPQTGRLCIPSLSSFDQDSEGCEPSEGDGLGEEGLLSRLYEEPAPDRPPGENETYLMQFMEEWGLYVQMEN
T1 sequence 2: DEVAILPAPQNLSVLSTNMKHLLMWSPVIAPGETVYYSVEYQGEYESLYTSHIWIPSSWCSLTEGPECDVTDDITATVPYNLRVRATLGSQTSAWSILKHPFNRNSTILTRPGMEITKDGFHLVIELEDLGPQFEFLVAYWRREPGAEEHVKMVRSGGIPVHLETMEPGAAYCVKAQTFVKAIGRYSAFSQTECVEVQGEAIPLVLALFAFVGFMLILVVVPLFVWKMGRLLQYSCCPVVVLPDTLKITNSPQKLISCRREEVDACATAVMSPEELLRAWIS
As to the kind of experiment: 125I-labeled IL-20 binding to BHK cells stably transfected with IL-20RA and IL-20RB.

B1: IL-20 (Interleukin-20) (ligand, UniProt Q9NYY1 25-176, looked up)
chain: LKTLNLGSCVIATNLQEIRNGFSEIRGSVQAKDGNIDIRILRRTESLQDTKPANRCCLLRHLLRLYLDRVFKNYQTPDHYTLRKISSLANSFLTIKKDLRLCHAHMTCHCGEEAMKKYSQILSHFEKLEPQAAVVKALGELDILLQWMEETE
modifications: biotin-labeled in Example 3; 125I-labeled in Example 7; unlabeled in the functional assays
notes: also called Zcyto10; biotin-labeled IL-20 protein
A word on the Kd: it is the equilibrium constant for the complex coming apart. A higher Kd goes with weaker binding. For the molecule B1, the Kd is approximately 1.5 nM.
